Measurements reported in patent publication US20250027068.
Positions count from the first letter of the chain named.

B1: PRT-17 (protein)
chain: MANQEIRYSEVTPYHITSVWTKGVTPPTNFTQGEDVFHAPYKANQGWYDITKTFNGKDDLLCGAATAGNMLHWWFDQNKEEIERYLKEHPEKQKINFNGEQMFDVKEAIDTKGSQTDSKLFNYFKDKAFPYLSTKHLGVFPDHVLDMFINGYRLSLTNHGPTPVKEQSKDPRGGIFDAVFTRGDQSKLLTSRHDFKEKNLKEISDLIKKELTEGKALGLSHTYANVRINHVINLWGADFDSEGNLEAIYVTDSDSNASIGMKKYFVGVNSAGKVAISAKEIKGDNIGAQVLGLFTLSTGQDIWEKTN
B2: PRT-16 (protein)
chain: MANQEIRYSEETPYHITSVWTKGVTPPTDFTQGEDVFHAPYVANQGWYDITKTFNGKDDLLCGAATAGNMLHWWFDQNKDQIERYLKKHPEKQKINFNGEQMFDVKEAIDTKDSQTDSKLFEYFKDKAFPYLSTKHLGVFPDHVLDMFINGYRLNLTNHGPTPVKEGSKDPRGGIFDAVFTRGDQSKLLTSRHDFKEKNLKEISDLIKQELQEGKALGLSHTYANVRINHVINLWGADFDSNGNLKAIYVTDSDSNASIGMKKYYVGVNAAGKVAISAKEIEEDNIGAQVLGLFTLSLGQDIWNQTN
B3: PRT-166 (protein)
chain: MANQEIRYSEVTPYHVTSVWTKGVTPPANFTQGEDVFHAPYVANQGWYDITKAFDGGDDLLCGAATAGNMLHWWFDQNKDQIKRYLEEHPEKQKINFNGEQMFDVKEAIDTKNSQTNSELFNYFKEKAFPYLSTKHLGVFPDHVIDMFINGYRLSLTNHGPTPVKEGSKDPRGGIFDAVFTRGDQSKLLTSRHDFKEKNLKEISDLIKKELTEGKALGLSHTYANVRINHVINLWGADFDSNGNLKAIYVTDSDSNASIGMKKYFVGVNSAGKVAISAKEIKEDNIGAQVLGLFTLSTGQDSWNQTN
B4: PRT-14 (protein)
chain: MANQEIRYSEVTPYTVTSVWTKGVTPPADFTQGEDVFHAPYIANQGWYDITKTFNGKDDLLCGAATAGNMLHWWFDQNKEQIERYLKKHPEKQKINFNGEQMFDVKEAIDTKDSQTDSELFEYFKEKAFPYLSTKHLGVFPDHVLDMFINGYRLSLTNHGPTPVKEGSKDPRGGIFDAVFTRGDQSKLLTNRHDFKEKTLSEISDLIKKELTEGKALGLSHTYANVRINHVINLWGADFDSEGNLEAIYVTDSDSNASIGMKKYFVGVNSAGKVAISAKEIKEDNIGAQVLGLFTLSTGQDIWNQTN
B5: PRT-157 (protein)
chain: MANQEIRYSEVTPYHVTSVWTKGVTPPEDFTQGEDVFHAPYKANQGWYDITKTFNGKDDLLCGAATAGNMLHWWFDQNKDQIKRYLEEHPEKQKINFNGEQMFDVKEAIDTKNHQLDSKLFEYFKEKAFPYLSTKHLGVFPDHVIDMFINGYRLSLTNHGPTPVKEGSKDPRGGIFDAVFTRGDQSKLLTSRHDFKEKNLKEISDLIKKELTEGKALGLSHTYANVRINHVINLWGADFDSNGNLKAIYVTDSDSNASIGMKKYFVGVNSAGKVAISAKEIKEDNIGAQVLGLFTLSTGQDSWNQTN
B6: PRT-158 (protein)
chain: B5 chain with E28T, T31I, Q32K, N44H, T212Q
B7: PRT-163 (protein)
chain: B3 chain with A53T, D55N, G57K, S114D
B8: PRT-159 (protein)
chain: B5 chain with E28T, T31I, Q32K, N44G, T212Q
B9: PRT-164 (protein)
chain: B3 chain with A53T, D55N, G57K, T116E
B10: PRT-160 (protein)
chain: B5 chain with S18T, K22D, T25K, E28T, T31I, Q32K, N44H, T212Q
B11: PRT-165 (protein)
chain: B3 chain with A53T, D55N
B12: PRT-162 (protein)
chain: B3 chain with A53T, D55N, G57K
B13: PRT-161 (protein)
chain: B5 chain with S18I, K22D, T25K, E28T, T31I, Q32K, N44H, T212Q
B14: PRT-15 (protein)
chain: MANQEIRYSEVTPYTITSVWTKGVTPPTNFTQGEDVFHAPYVANQGWYDITKTFNGKDDLLCGAATAGNMLHWWFDQNKDEIERYLKEHPEKQKINFNGEQMFDVKEAIDTKDSQTDSKLFEYFKDKAFPYLSTKHLGVFPDHVIDMFINGYRLSLTNHGPTPVKRGSKDPRGGIFDAVFTRGDQSKLLTSRHDFKEKNLNEISDLIKQELTEGKALGLSHTYANVRINHVINLWGADFNSNGNLKAIYVTDSDSNASIGMKKYFVGVNKAGKVAISAKEIKGDNIGAQVLGLFTLSTGQDIWEQTN

Molecular target: pooled human IgG

Protein	Enzyme Activity Endpoint Assay: Fab′2	Enzyme Activity Endpoint Assay: Fc	Enzyme Activity Endpoint Assay: IgG	Enzyme Activity Endpoint Assay: scIgG	Enzyme Activity Endpoint Assay (purified): Fab'2	Enzyme Activity Endpoint Assay (purified): Fc	Enzyme Activity Endpoint Assay (purified): IgG	Enzyme Activity Endpoint Assay (purified): scIgG
B1	53 ng/µL	116 ng/µL	34 ng/µL	0 ng/µL	–	–	–	–
B2	0 ng/µL	0 ng/µL	151 ng/µL	0 ng/µL	–	–	–	–
B3	–	–	–	–	597 ng/µL	161 ng/µL	0 ng/µL	0 ng/µL
B4	18 ng/µL	94 ng/µL	13 ng/µL	43 ng/µL	–	–	–	–
B5	–	–	–	–	806 ng/µL	198 ng/µL	0 ng/µL	0 ng/µL
B6	–	–	–	–	637 ng/µL	163 ng/µL	0 ng/µL	0 ng/µL
B7	–	–	–	–	706 ng/µL	184 ng/µL	29 ng/µL	0 ng/µL
B8	–	–	–	–	637 ng/µL	184 ng/µL	0 ng/µL	0 ng/µL
B9	–	–	–	–	508 ng/µL	203 ng/µL	0 ng/µL	85 ng/µL
B10	–	–	–	–	642 ng/µL	168 ng/µL	0 ng/µL	0 ng/µL
B11	–	–	–	–	783 ng/µL	204 ng/µL	0 ng/µL	0 ng/µL
B12	–	–	–	–	729 ng/µL	196 ng/µL	0 ng/µL	0 ng/µL
B13	–	–	–	–	669 ng/µL	172 ng/µL	0 ng/µL	0 ng/µL
B14	52 ng/µL	136 ng/µL	18 ng/µL	17 ng/µL	–	–	–	–
